{
  "source": "patent US20220119490A1",
  "about": "(Genentech, published 2022)",
  "binders": {"B1": {"name": "LRRC4B extracellular domain (receptor, human, UniProt Q9NT99 36-576, looked up)", "chain": "AGGGGVAVTSAAGGGSPPATSCPVACSCSNQASRVICTRRDLAEVPASIPVNTRYLNLQENGIQVIRTDTFKHLRHLEILQLSKNLVRKIEVGAFNGLPSLNTLELFDNRLTTVPTQAFEYLSKLRELWLRNNPIESIPSYAFNRVPSLRRLDLGELKRLEYISEAAFEGLVNLRYLNLGMCNLKDIPNLTALVRLEELELSGNRLDLIRPGSFQGLTSLRKLWLMHAQVATIERNAFDDLKSLEELNLSHNNLMSLPHDLFTPLHRLERVHLNHNPWHCNCDVLWLSWWLKETVPSNTTCCARCHAPAGLKGRYIGELDQSHFTCYAPVIVEPPTDLNVTEGMAAELKCRTGTSMTSVNWLTPNGTLMTHGSYRVRISVLHDGTLNFTNVTVQDTGQYTCMVTNSAGNTTASATLNVSAVDPVAAGGTGSGGGGPGGSGGVGGGSGGYTYFTTVTVETLETQPGEEALQPRGTEKEPPGPTTDGVWGGGRPGDAAGPASSSTTAPAPRSSRPTEKAFTVPITDVTENALKDLDDVMKTTK", "notes": "extracellular domain; ECD-Fc prey; also called NGL-3; netrin-G ligand-3"}},
  "key": {"[1]": {"biological_target": "T1, PTPRD R232C R233C variant extracellular domain (human, UniProt P23468 21-1265)", "T1 construct": "extracellular domain; also called R232C/R233C double mutant; IG2 mutant", "T1 sequence (looked up)": "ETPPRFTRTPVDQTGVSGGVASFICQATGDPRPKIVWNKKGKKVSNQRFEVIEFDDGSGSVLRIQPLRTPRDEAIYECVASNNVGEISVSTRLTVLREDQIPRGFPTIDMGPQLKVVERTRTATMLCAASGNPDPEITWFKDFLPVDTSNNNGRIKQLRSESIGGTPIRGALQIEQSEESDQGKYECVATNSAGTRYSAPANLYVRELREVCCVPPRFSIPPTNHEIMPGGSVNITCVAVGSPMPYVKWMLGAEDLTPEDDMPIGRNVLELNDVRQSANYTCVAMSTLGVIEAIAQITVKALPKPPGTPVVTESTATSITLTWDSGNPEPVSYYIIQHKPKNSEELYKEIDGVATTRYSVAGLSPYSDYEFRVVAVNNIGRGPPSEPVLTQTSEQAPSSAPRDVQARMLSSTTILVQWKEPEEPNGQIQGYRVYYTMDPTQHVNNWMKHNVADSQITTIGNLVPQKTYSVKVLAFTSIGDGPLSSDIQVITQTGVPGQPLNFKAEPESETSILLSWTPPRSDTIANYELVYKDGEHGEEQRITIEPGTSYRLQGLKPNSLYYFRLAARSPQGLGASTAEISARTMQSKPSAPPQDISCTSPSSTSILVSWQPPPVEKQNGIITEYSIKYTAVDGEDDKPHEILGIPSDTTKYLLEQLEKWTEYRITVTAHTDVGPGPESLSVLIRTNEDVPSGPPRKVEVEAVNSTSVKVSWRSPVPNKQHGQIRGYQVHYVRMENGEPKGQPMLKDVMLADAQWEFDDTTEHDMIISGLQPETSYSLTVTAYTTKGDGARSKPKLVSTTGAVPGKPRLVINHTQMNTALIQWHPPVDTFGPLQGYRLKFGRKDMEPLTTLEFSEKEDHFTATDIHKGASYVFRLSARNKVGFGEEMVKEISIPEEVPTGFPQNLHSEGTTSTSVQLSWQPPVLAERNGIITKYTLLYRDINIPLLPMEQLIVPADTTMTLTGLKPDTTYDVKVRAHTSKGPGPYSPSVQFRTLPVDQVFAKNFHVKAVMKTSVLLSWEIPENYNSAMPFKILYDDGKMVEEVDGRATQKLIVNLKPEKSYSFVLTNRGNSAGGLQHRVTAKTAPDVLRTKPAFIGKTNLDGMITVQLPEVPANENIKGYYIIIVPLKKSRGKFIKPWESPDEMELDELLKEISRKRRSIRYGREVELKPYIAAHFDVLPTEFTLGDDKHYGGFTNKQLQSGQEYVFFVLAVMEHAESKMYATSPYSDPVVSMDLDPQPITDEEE", "experiment": "extracellular interaction screen: pentameric PTPRD variant ECD on ECD-Fc prey (FIG. 5L)"}, "[2]": {"biological_target": "T2, PTPRD R561Q variant extracellular domain (human, UniProt P23468 21-1265)", "T2 construct": "extracellular domain; also called FN3 mutant", "T2 sequence (looked up)": "T1 sequence (looked up) with C212R, C213R, R541Q", "experiment": "extracellular interaction screen: pentameric PTPRD variant ECD on ECD-Fc prey (FIG. 5L)"}},
  "note": "Positions count from the first letter of the chain named.",
  "data": [
    {"binder": "B1", "values": [
      {"measurement": "binding result", "setting": "[1]", "result": "no binding"},
      {"measurement": "binding result", "setting": "[2]", "result": "no binding"}
    ]}
  ]
}
